Assay results reported in PMC11124013, “Substrate Affinity Is Not Crucial for Therapeutic L-Asparaginases: Antileukemic Activity of Novel Bacterial Enzymes” (Molecules, 2024).

Columns and labels:
[1] = substrate: NC(=O)C[C@H](N)C(=O)O; assay: ITC single-injection method; assay type: biochemical, Escherichia coli; conditions: PBS pH 7.4, 37 °C
Source text: ITC single-injection method on EcAII

Nessler ammonia assay [2] = substrate: NC(=O)C[C@H](N)C(=O)O; assay: Nessler ammonia assay; assay type: biochemical, Escherichia coli; conditions: PBS pH 7.4, 37 °C
Source text: Nessler ammonia assay on EcAIII

purified protein [3] = substrate: COC(=O)[C@H](Cc1ccccc1)NC(=O)C[C@H](N)C(=O)O; assay: purified protein; assay type: biochemical, Escherichia coli; conditions: PBS pH 7.4, 37 °C, 600 µM α-ketoglutarate, 190 µM NADH
purified protein [4] = substrate: NC(=O)C[C@H](N)C(=O)O; assay: purified protein; conditions: PBS pH 7.4, 37 °C
Nessler ammonia assay [5] = substrate: NC(=O)C[C@H](N)C(=O)O; assay: Nessler ammonia assay; assay type: biochemical, Rhizobium etli; conditions: PBS pH 7.4, 37 °C
Source text: Nessler ammonia assay on ReAV

B1: EcAII (Escherichia coli K-12) (protein)
chain: LPNITILATGGTIAGGGDSATKSNYTVGKVGVENLVNAVPQLKDIANVKGEQVVNIGSQDMNDNVWLTLAKKINTDCDKTDGFVITHGTDTMEETAYFLDLTVKCDKPVVMVGAMRPSTSMSADGPFNLYNAVVTAADKASANRGVLVVMNDTVLDGRDVTKTNTTDVATFKSVNYGPLGYIHNGKIDYQRTPARKHTSDTPFDVSKLNELPKVGIVYNYANASDLPAKALVDAGYDGIVSAGVGNGNLYKSVFDTLATAAKTGTAVVRSSRVPTGATTQDAEVDDAKYGFVASGTLNPQKARVLLQLALTQTKDPQQIQQIFNQY
notes: synthetic gene, N-terminal 6xHis-tag (pET28a or pMSCG92), expressed in E. coli BL21 (DE3) deltaansA/deltaansB; tetramer
Km [1]: 0.012 ± 0.002 mM
kcat [1]: 39 ± 1 s⁻¹
kcat/Km [1]: 3.3e+06 ± 561000 M⁻¹ s⁻¹

B2: EcAIII (Escherichia coli K-12) (protein)
chain 1: GKAVIAIHGGAGAISRAQMSLQQELRYIEALSAIVETGQKMLEAGESALDVVTEAVRLLEECPLFNAGIGAVFTRDETHELDACVMDGNTLKAGAVAGVSHLRNPVLAARLVMEQSPHVMMIGEGAENFAFARGMERVSPEIFSTSLRYEQLLAARKEGATVLDHSGAPLDEKQKMG
chain 2: TVGAVALDLDGNLAAATSTGGMTNKLPGRVGDSPLVGAGCYANNASVAVSCTGTGEVFIRALAAYDIAALMDYGGLSLAEACERVVMEKLPALGGSGGLIAIDHEGNVALPFNTEGMYRAWGYAGDTPTTGIYREKGDTVATQ
notes: synthetic gene, N-terminal 6xHis-tag (pET28a or pMSCG92), expressed in E. coli BL21 Gold (DE3); precursor self-matures into alpha and beta subunits, (alpha-beta)2 heterotetramer
Km (Nessler ammonia assay [2]): 17.66 ± 1.87 mM
kcat (Nessler ammonia assay [2]): 5.77 ± 0.19 s⁻¹
kcat/Km (Nessler ammonia assay [2]): 330 ± 100 M⁻¹ s⁻¹
Km (purified protein [3]): 3.57 ± 0.58 mM
kcat (purified protein [3]): 0.112 ± 0.007 s⁻¹
kcat/Km (purified protein [3]): 31 ± 7 M⁻¹ s⁻¹

B3: ReAIV (Rhizobium etli CFN 42) (protein)
chain: MTNPVTVEVTRGLLVESRHRGAVAVVDGDGKLFFSLGDIDTAVFPRSACKAMQALPLVESGAADAYGFGDKELALACASHNGEEEHVALAASMLSRAGRNVEALECGAHWSMNQKVLIQQARSLDAPTALHNNCSGKHAGFICACCHRDIDPKGYVGYEHPLQVEIRAVMERLTGAVLGAESCGTDGCSIPTYAMPLRNLAHGFARMATGTGLEPLRAKASRRLIEACMAEPFYVAGSGRACTKLMQIAPGRIFVKTGAEGVFCAAIPEKGIGISLKSEDGATRAAEAMVAATLARFFETEETVHAALMAFAAMPMRNWNGIHVGDIRATSVFSA
Km (purified protein [4]): 7.16 ± 2.03 mM
kcat (purified protein [4]): 9.98 s⁻¹
kcat/Km (purified protein [4]): 1390 M⁻¹ s⁻¹

B4: ReAV (Rhizobium etli CFN 42) (protein)
chain: MTPSEDFVVTDRGGIVENSHRVHAAVVDAKGRLLYALGNPTRMTLARSAAKPAQALAILETEGVAGYGFDDADIALMCASHSSEDRHIARTRAMLSKIKAEEADLRCGGHPSLSEMVNRSWIKQDFIPTAVCSNCSGKHVGMLAGARAIGAGTDGYHLPDHPMQGRVKRTVAELCDLDAGDVEWGTDGCNLPTPAFPLDRLGRIYAKLASAADGSDAGEGQSTRCAALAHIFRAMARHPEMVAGEGRYCTMLMRAFDGALVGKLGADASYAIGVRASDATRQLGTDGALGISVKIEDGNLEMLYAVVTELLERLGIGSPDVRSQLASFHHPQRVNTMGVTTGGVSFPFKLRGSKSNVDDPRLAAVAR
notes: gene in pET151D-TOPO, 6xHis-tagged, expressed in E. coli BL21 Gold (DE3); homodimer, Zn in active site
Km (Nessler ammonia assay [5]): 24.81 ± 3.22 mM
kcat (Nessler ammonia assay [5]): 28.5 ± 1.6 s⁻¹
kcat/Km (Nessler ammonia assay [5]): 1150 ± 210 M⁻¹ s⁻¹
